Data on 15 molecules can be found in patent CN114920842A (HUALAN GENE ENG CO LTD, dated 2022).

Residue numbers refer to the chain shown, from its start.

First the molecules themselves.
B1: HLPV-P01 (antibody, IgG1, V domains shown)
VH: QVQLVQSGAEVKKPGASVKVSCKASGYTFTDYYMYWVRQAPGQGLEWIGEINPTQGDVNFNEMFKSRVTMTVDTSTSTAYMELSSLRSEDTAVYYCTSIFYWGQGTLVTVSS
VL: DIVMTQSPSSLSASVGDRVTITCKASQDIKYQLSWYQQKPGKAPKTLIYYATDLADGVPSRFSGSGSGQEFTLTISSLQPEDFATYYCVQHDDRPFTFGQGTKLEIK
notes: Full IgG1/kappa antibody; also called 中间抗体; not shown: human IgG1 heavy chain constant region, UniProtKB P01857.1; human Kappa light chain constant region, UniProtKB P01834.2
B2: HLPV-P04 (antibody, IgG1, V domains shown)
VH: B1 VH with T30R, Q55T
VL: B1 VL with D53S
notes: Full IgG1/kappa antibody; not shown: human IgG1 heavy chain constant region, UniProtKB P01857.1; human Kappa light chain constant region, UniProtKB P01834.2
B3: HLPV-P12 (antibody, IgG1, V domains shown)
VH: B1 VH with T54S
VL: B1 VL with L54R
notes: as for B2
B4: HLPV-P08 (antibody, IgG1, V domains shown)
VH: B1 VH with S98T
VL: B1 VL with S34T, Q90S
notes: as for B2
B5: HLPV-P11 (antibody, IgG1, V domains shown)
VH: B1 VH with S98T
VL: B1 VL with T97S
notes: as for B2
B6: HLPV-P07 (antibody, IgG1, V domains shown)
VH: B1 VH with T30E, N59R
VL: B1 VL with D53Y
notes: as for B2
B7: HLPV-P13 (antibody, IgG1, V domains shown)
VH: B1 VH with T28V, Q55S
VL: B1 VL with T52G
notes: as for B2
B8: HLPV-P03 (antibody, IgG1, V domains shown)
VH: B1 VH with T30E, I51V
VL: B1 VL with D53F
notes: as for B2
B9: HLPV-P00 (antibody, IgG1, V domains shown)
VH: B1 VH with F100H
VL: B1 VL with Y31T, V89L
notes: Full IgG1/kappa antibody, VH fused at its C-terminus to the IgG1 constant region, VL to the kappa constant region; expressed in ExpiCHO-S; also called 原始抗体; not shown: human IgG1 heavy chain constant region, UniProtKB P01857.1; human Kappa light chain constant region, UniProtKB P01834.2
B10: HLPV-P05 (antibody, IgG1, V domains shown)
VH: B1 VH
VL: B1 VL with S34T, D93N
notes: as for B2
B11: HLPV-P02 (antibody, IgG1, V domains shown)
VH: B1 VH with T28V, Q55T
VL: B1 VL with A51S
notes: as for B2
B12: HLPV-P06 (antibody, IgG1, V domains shown)
VH: B1 VH with D31A, Q55S
VL: B1 VL with D53F
notes: as for B2
B13: HLPV-P10 (antibody, IgG1, V domains shown)
VH: B1 VH
VL: B1 VL with S34T, D92S
notes: as for B2
B14: HLPV-P09 (antibody, IgG1, V domains shown)
VH: B1 VH with S98T
VL: B1 VL with K30G, D92Y
notes: as for B2
B15: HLPV-P14 (antibody, IgG1, V domains shown)
VH: B1 VH with D31N, Q55S
VL: B1 VL with T52G
notes: as for B2

This assay concerns the target T1, 重组人PLVAP/PV-1蛋白 (human, UniProt Q9BX97 49-442, limits assumed).
T1 construct: Bought reagent (Abcam); Coupled to a CM5 chip in the SPR assay; also called 质膜膜泡关联蛋白
T1 sequence (looked up): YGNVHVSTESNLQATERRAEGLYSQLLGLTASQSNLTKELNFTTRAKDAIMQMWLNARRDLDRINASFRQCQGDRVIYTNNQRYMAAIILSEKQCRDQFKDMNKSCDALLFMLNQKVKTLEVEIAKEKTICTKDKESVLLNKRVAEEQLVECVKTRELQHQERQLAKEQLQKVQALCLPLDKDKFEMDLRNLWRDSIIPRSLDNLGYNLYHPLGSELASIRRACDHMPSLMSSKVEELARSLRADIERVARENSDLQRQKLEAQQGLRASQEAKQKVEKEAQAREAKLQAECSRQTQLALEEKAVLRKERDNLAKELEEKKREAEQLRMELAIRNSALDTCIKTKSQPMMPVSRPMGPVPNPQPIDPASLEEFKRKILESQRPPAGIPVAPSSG
Nature of the assay: SPR, Biacore T200, PV-1 coupled to CM5 chip, antibody as analyte, 25℃, 1:1 fit.
On to B1, for which the “倍数 (fold against HLPV-P00)” value was found to be 7.31 fold.
For the molecule B2, the “倍数 (fold against HLPV-P00)” value was 14 fold.
As for B3, the “倍数 (fold against HLPV-P00)” value is 4.1 fold.
As for B4, the “倍数 (fold against HLPV-P00)” value is 38.4 fold.
With B5, the “倍数 (fold against HLPV-P00)” value turned out to be 40.5 fold.
B6: the “倍数 (fold against HLPV-P00)” value amounted to 11.4 fold.
For the molecule B7, the “倍数 (fold against HLPV-P00)” value came out at 9.29 fold.
For the molecule B8, the “倍数 (fold against HLPV-P00)” value is 13.4 fold.
For B9, the “倍数 (fold against HLPV-P00)” value turned out to be 1 fold.
As to B10, the “倍数 (fold against HLPV-P00)” value was 25.8 fold.
Consider B11, for which the “倍数 (fold against HLPV-P00)” value was 6.29 fold.
As for B12, the “倍数 (fold against HLPV-P00)” value came to 8.95 fold.
The figure for B13 is 23.4 fold.
Turning to B14, the “倍数 (fold against HLPV-P00)” value stood at 36.8 fold.
For B15, the “倍数 (fold against HLPV-P00)” value worked out at 8.58 fold.
